The text below walks through data of patent publication US20060257938A1, “Method of screening for drugs that block ligand binding to a lipid binding protein” (priority 2005, published 2006).

Sequences and labels used below:
B1: 78I, 72A (protein, listed as Rattus norvegicus)
chain: AFDGTWKVDRNENYEKFMEKMGINVVKRKLGAHDNLKLTITQEGNKFTVKESSNFRNIDVVFELGVDFAYSAADGTEITGTWTMEGNKLVGKFKRVDNGKELIAVREISGNELIQTYTYEGVEAKRIFKKE
modifications: PEPTIDE (1)...(131) wild-type rat intestinal fatty acid binding protein
B2: 11V, 72A (protein, listed as Rattus norvegicus)
chain: B1 chain with N11V, I78L
modifications: PEPTIDE (1)...(131) wild-type rat intestinal fatty acid binding protein
B3: 104G, 72A (protein, listed as Rattus norvegicus)
chain: B1 chain with I78L, A104G
modifications: PEPTIDE (1)...(131) wild-type rat intestinal fatty acid binding protein
B4: 11M, 72A (protein, listed as Rattus norvegicus)
chain: B1 chain with N11M, I78L
modifications: PEPTIDE (1)...(131) wild-type rat intestinal fatty acid binding protein
B5: 21V, 72A (protein, listed as Rattus norvegicus)
chain: B1 chain with M21V, I78L
modifications: PEPTIDE (1)...(131) wild-type rat intestinal fatty acid binding protein
B6: 55I, 72A (protein, listed as Rattus norvegicus)
chain: B1 chain with F55I, I78L
modifications: PEPTIDE (1)...(131) wild-type rat intestinal fatty acid binding protein
B7: 82V, 72A (protein, listed as Rattus norvegicus)
chain: B1 chain with I78L, W82V
modifications: PEPTIDE (1)...(131) wild-type rat intestinal fatty acid binding protein
B8: 55Q, 72A (protein, listed as Rattus norvegicus)
chain: B1 chain with F55Q, I78L
modifications: PEPTIDE (1)...(131) wild-type rat intestinal fatty acid binding protein
B9: 14L 72G (protein, listed as Rattus norvegicus)
chain: B1 chain with Y14L, A72G, I78L
modifications: PEPTIDE (1)...(131) wild-type rat intestinal fatty acid binding protein
B10: 38I 72G (protein, listed as Rattus norvegicus)
chain: B1 chain with L38I, A72G, I78L
modifications: PEPTIDE (1)...(131) wild-type rat intestinal fatty acid binding protein
B11: 55V, 72A (protein, listed as Rattus norvegicus)
chain: B1 chain with F55V, I78L
modifications: PEPTIDE (1)...(131) wild-type rat intestinal fatty acid binding protein
B12: 78V, 72A (protein, listed as Rattus norvegicus)
chain: B1 chain with I78V
modifications: PEPTIDE (1)...(131) wild-type rat intestinal fatty acid binding protein
B13: 115H, 72A (protein, listed as Rattus norvegicus)
chain: B1 chain with I78L, Q115H
modifications: PEPTIDE (1)...(131) wild-type rat intestinal fatty acid binding protein
B14: 115N, 72A (protein, listed as Rattus norvegicus)
chain: B1 chain with I78L, Q115N
modifications: PEPTIDE (1)...(131) wild-type rat intestinal fatty acid binding protein
B15: 104F, 72A (protein, listed as Rattus norvegicus)
chain: B1 chain with I78L, A104F
modifications: PEPTIDE (1)...(131) wild-type rat intestinal fatty acid binding protein

Positions count from the first letter of the chain named.

The first experiment in a line: Probe fluorescence ratio response to palmitic acid relative to ADIFAB2. The note with it: response relative to ADIFAB2. Type of experiment: binding. The procedure, abridged:
(§1)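 Each fatty acid's response was expressed relative to ADIFAB2, the rI-FABP-L72A probe, as ΔR/ΔRreference. ΔR is the change in the background-corrected two-wavelength intensity ratio R=Fλ1/Fλ2 from its analyte-free baseline R0. Emission was read near about 420-480 nm for unbound and about 495-580 nm for FFA-bound probe.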
Take B1: the “DR/DR PA” value is 0.748.

B2: the “DR/DR PA” value was 0.732.

In the case of B3, the “DR/DR PA” value was determined as 0.650.

Regarding B4, the “DR/DR PA” value was 0.543.

As for B5, the “DR/DR PA” value came out at 0.462.

For B6, the “DR/DR PA” value came out at 0.774.

Turning to B7, the “DR/DR PA” value is on record as 0.345.

For B8, the “DR/DR PA” value amounted to 0.428.

As to B9, the “DR/DR PA” value was determined as 0.334.

On to B10, for which the “DR/DR PA” value is given as 0.419.

On to B11, for which the “DR/DR PA” value worked out at 0.374.

Consider B12, for which the “DR/DR PA” value is given as 0.615.

With B13, the “DR/DR PA” value was determined as 0.514.

Take B14: the “DR/DR PA” value came out at 0.558.

In the case of B15, the “DR/DR PA” value turned out to be 0.263.

Another experiment can be described thus: Probe fluorescence ratio response to arachidonic acid relative to ADIFAB2. It counts as binding. The note with it: arachidonic acid; response relative to ADIFAB2. The procedure, abridged:
as §1
In the case of B1, the “DR/DR AA” value is 1.138.

Consider B2, for which the “DR/DR AA” value came out at 0.932.

For the molecule B3, the “DR/DR AA” value was 0.866.

Take B4: the “DR/DR AA” value is reported as 0.697.

For B5, the “DR/DR AA” value is 0.939.

As for B6, the “DR/DR AA” value stood at 1.079.

As for B7, the “DR/DR AA” value came to 0.757.

In the case of B8, the “DR/DR AA” value was determined as 0.600.

With B9, the “DR/DR AA” value turned out to be 0.873.

Consider B10, for which the “DR/DR AA” value is recorded as 0.964.

As for B11, the “DR/DR AA” value came to 0.581.

In the case of B12, the “DR/DR AA” value was determined as 1.093.

Turning to B13, the “DR/DR AA” value came out at 0.891.

Take B14: the “DR/DR AA” value was found to be 0.918.

As for B15, the “DR/DR AA” value was determined as 0.686.

The next experiment in a line: Probe fluorescence ratio response to oleic acid relative to ADIFAB2. It counts as binding. The note with it: response relative to ADIFAB2. The gist of the method: as §1
Turning to B1, the “DR/DR OA” value amounted to 0.923.

As to B2, the “DR/DR OA” value amounted to 0.552.

For B3, the “DR/DR OA” value was determined as 0.691.

B4: the “DR/DR OA” value turned out to be 0.463.

Regarding B5, the “DR/DR OA” value is listed as 0.739.

As for B6, the “DR/DR OA” value is on record as 0.901.

Regarding B7, the “DR/DR OA” value was determined as 0.461.

Regarding B8, the “DR/DR OA” value turned out to be 0.536.

With B9, the “DR/DR OA” value turned out to be 0.730.

B10: the “DR/DR OA” value is recorded as 0.861.

As for B11, the “DR/DR OA” value came to 0.468.

As for B12, the “DR/DR OA” value stood at 0.864.

B13: the “DR/DR OA” value is 0.675.

With B14, the “DR/DR OA” value turned out to be 0.711.

Regarding B15, the “DR/DR OA” value turned out to be 0.462.

Another experiment in a line: Probe fluorescence ratio response to linoleic acid relative to ADIFAB2. It counts as binding. The note with it: response relative to ADIFAB2. The procedure, abridged: as §1
Turning to B1, the “DR/DR LA” value stood at 0.874.

As for B2, the “DR/DR LA” value is 0.825.

For the molecule B3, the “DR/DR LA” value was determined as 0.665.

For the molecule B4, the “DR/DR LA” value turned out to be 0.576.

On to B5, for which the “DR/DR LA” value is reported as 0.871.

Regarding B6, the “DR/DR LA” value is given as 0.834.

On to B7, for which the “DR/DR LA” value is 0.519.

Regarding B8, the “DR/DR LA” value was found to be 0.474.

Consider B9, for which the “DR/DR LA” value turned out to be 0.817.

Consider B10, for which the “DR/DR LA” value is given as 0.772.

Regarding B11, the “DR/DR LA” value is given as 0.432.

On to B12, for which the “DR/DR LA” value turned out to be 0.865.

B13: the “DR/DR LA” value was 0.741.

For B14, the “DR/DR LA” value was 0.777.

Regarding B15, the “DR/DR LA” value stood at 0.486.

A short description of another experiment: Probe fluorescence ratio response to linolenic acid relative to ADIFAB2. Type of experiment: binding. The note with it: response relative to ADIFAB2. The procedure, abridged: as §1
Consider B1, for which the “DR/DR LNA” value is listed as 0.958.

For the molecule B2, the “DR/DR LNA” value is reported as 0.763.

For B3, the “DR/DR LNA” value is 0.687.

For B4, the “DR/DR LNA” value was 0.651.

On to B5, for which the “DR/DR LNA” value was 0.889.

In the case of B6, the “DR/DR LNA” value turned out to be 0.885.

On to B7, for which the “DR/DR LNA” value amounted to 0.456.

Take B8: the “DR/DR LNA” value came out at 0.492.

For B9, the “DR/DR LNA” value is 0.886.

B10: the “DR/DR LNA” value was 0.701.

Turning to B11, the “DR/DR LNA” value is given as 0.477.

On to B12, for which the “DR/DR LNA” value is 0.798.

Turning to B13, the “DR/DR LNA” value was determined as 0.697.

For B14, the “DR/DR LNA” value is 0.726.

With B15, the “DR/DR LNA” value worked out at 0.436.
